The nature of the series: soluble on expression in E. coli; label from the status in PepcDB or PDB records.
With “MRGSHHHHHHGSTMDIKPAFGTNQEDYASYIMNGIIKWGDPVTRVLDDGELLVQQTKNSDRTPLVSVLLEGPPHSGKTALAAKIAEESNFPFIKICSPDKMIGFSETAKCQAMKKIFDDAYKSQLSCVVVDDIERLLDYVPIGPRFSNLVLQALLVLLKKAPPQGRKLLIIGTTSRKDVLQEMEMLNAFSTTIHVPNIATGEQLLEALELLGNFKDKERTTIAQQVKGKKVWIGIKKLLMLIEMSLQMDPEYRVRKFLALLREEGASPLDFK”, the “soluble on expression in E. coli” value is listed as “soluble”. The result for “MSLVLDKLLYTGYNRLIDLGWRRSGHYLYKPNGKTSCCSLYTIRLDSYNFKIAKEQKKAIKKWVKYVNGKPLKPMKSEISTDYLNNAFQTIESLGAEKYSVTMEPCTYTDEKFEVFKKYQMQVHLEKEEEITKKGFSRFLCNSPLFNEDKGIKYGSYHQMYRFQGRLVAVGVLDLLPHGVSSVYLFYDPDMSKFSLGRISACREIWLALECGYRYYYMGYYIHTCPKMKYKATYSPSYLLNPGTNKWIPIENFTSLWNTGAPKYISFGDENNSDIQTAVDYDSSEDSSQNEDDYTLFNRQLPGILSVNVAESLVSENFANIGNSTFPTRHVLSYFPQVKHWFVEINAAVGEEVAKSYTLVLSSEGHHHHHH” reads “not soluble”; that for “MGSDKIHHHHHHMEKAVENFEDLSKEYINGYIERARKAQREFECYTQEQVDKIVKIVGKVVYYNAEYLAKLAVEETGMGVYEDKVAKNKSKAKVIYNNLKDKKSVGIIDIDRETGITKVAKPVGVVAAITPCTNPIVTPMSNAMFALKGRNAIIITPHHKAIGCSTKTVEMINEELEKIGAPENLIQILDQQSRENTRNLISSADVVIATGGMGMVKAAYSSGKPALGVGAGNVQCIIDRDVDIKEAVPKIIAGRIFDNGIICSGEQSVIVAEEMFDKIMDEFKNNKGFIVRDKVQKEAFRNAMFVNKSMNKDAVGQSVHTIAKIAGVEIPEDTKIIVIEADGPGEEDIIAKEKMCPVISAYKYKSFEEGVAIAKANLNVEGKGHSVSIHSNTVKNIEYAGENIEVSRFVINQCCATSAGGSFFNGLAPTNTLGCGSWGNNSISENLDYKHLINISRIAYYMPENEVPTDEELWG”, “not soluble”; that for “MEHIRRVAELAREIARNNGLDPERAYLAGLLHDAARDLPEEELRRLAPPENEVEEAHPLALHGRAARALAASWGVRDEEVLEAIEGHVYGVDPENGIGMALYVADVSEPGRGVNEEIRELALAGRLKEAYRLAVRNKVHYLKAKKIPIHPRTLEVYHSL”, “soluble”. The same measure for “MSNNGSSPLVLWYNQLGMKDVDRVGGKNASLGEMITNLSGMGVSVPNGFATTADAFNQFLDQSGVNQRIYELLDKTDIDDVTQLAKAGAQIRQWIIDTPFQPELENAIREAYAQLSADDENASFAVRSSATAEDMPDASFAGQQETFLNVQGFDAVLVAVKHVFASLFNDRAISYRVHQGYDHRGVALSAGVQRMVRSDLASSGVMFSIDTESGFDQVVFITSAWGLGEMVVQGAVNPDEFYVHKPTLAANRPAIVRRTMGSKKIRMVYAPTQEHGKQVKIEDVPQEQRDIFSLTNEEVQELAKQAVQIEKHYGHPMDIEWAKDGHTGKLFIVQARPETVRSRGQVMERYTLHSQGKIIAEGRAIGHRIGAGPVKVIHDISEMNRIEPGDVLVTDMTDPDWEPIMKKASAIVTNRGGRTCHAAIIARELGIPAVVGCGDATERMKDGENVTVSCAEGDTGYVYAELLEFSVKSSSVETMPDLPLKVMMNVGNPDRAFDFACLPNEGVGLARLEFIINRMIGVHPRALLEFDDQEPQLQNEIREMMKGFDSPREFYVGRLTEGIATLGAAFYPKRVIVRLSDFKSNEYANLVGGERYEPDEENPMLGFRGAGRYVSDSFRDCFALECEAVKRVRNDMGLTNVEIMIPFVRTVDQAKAVVEELARQGLKRGENGLKIIMMCEIPSNALLAEQFLEYFDGFSIGSNDMTQLALGLDRDSGVVSELFDERNDAVKALLSMAIRAAKKQGKYVGICGQGPSDHEDFAAWLMEEGIDSLSLNPDTVVQTWLSLAELKK”: “not soluble”. Regarding “MGSDKIHHHHHHMYKLVIIEDEHIIRKWLRYAIDYKALDILVIGEAKDGKEGAVLIKESQPDIVLTDINMPIMTAFDMFEVTKDQTYAKIILSGYADFPNARSAIHYGVLEFLTKPIEKAALWECLQTIIAKIEKQKGSNQKTDACVYIPLPQMTDQIPEVVKDILEWVHAHFQDKISTSRLAHDLGYSESYIYQNIKKHLQMPLSDYINQYRINQAIQLMQQEPDLMVYEIAQAVGIYDYRYFDRVFKKYLGQTVKAFKEEHFMKDTDRSKPC”, the “soluble on expression in E. coli” value is reported as “not soluble”. Regarding “MSLYPLVLDLAATGVPVAVTCRELGFTKQGFYKWCAHPVSARDWDEAHLINAAYDVHTDDPEFGHRFIADELHAAGLQTSERRVWRLCSQQQLFSHTIKRARKHGKKPGPPVCDDLVERDFTAKAINELWLTDVTEHHTSEGKLYMCAVKDVFSNRIVGYAIDSRMKSRLAVAAIDDAVARRGGSGMIAGCVVHSDRGSQFRSRKFQQALRHYGLVGSMGRVGAAGDNAAMESFFAVLQKNVLDRGRWDTRARLRTAIVHWVERTYHRKRRQRRLGKLTPVEYELVHQKAVALAAEGHHHHHH”, the “soluble on expression in E. coli” value is recorded as “not soluble”. In the case of “MAHHHHHHMLKHPQAALLFVHNSSDLFQNDTLGVLRNKTKIQNKKKISRFKIQSSEERHTDGGLHYDLTPENVEKVLNLIRPKLQIDNGDVELVDIKNNDLYIKLLGNCVTCSSNSVTVSQVIKKTLKMYIRNEKNEEPNVIITNFDEINEENIHSCLSDLKPYFDFLSKWHTGGGTPLGVMLGGRGSYSKEKRPFKGGDPSHSISSTPPPLKRAKRSTV”, the “soluble on expression in E. coli” value is “not soluble”. The result for “MNRDIGKNAERELVSILRGEGFNAVRIPTSNSSPNPLPDIFATKGNTLLSIECKSTWENKVKVKEHQVRKLLDFLSMFTMKGVPLIAIKFKQVHEWRVLVPEKAEDIIVTIDNSIPIEDLFKILEKRIEEKILTP” reads “soluble”.

“MNPFIVADAESCIGCRSCEVACVVAHHEGQFPDKPEYFTPRVKVFKGDQCATAVFCHHCEDAPCASTCPNGAIVELNNRVQVIQEKCIGCKTCMIACPFGMMTVVTETVQPASHRLADVYRRTEAQKCDLCLDQPDGPACIKTCPTQALTLVDQQYLLHQQQQKRQHMALNEHNGRLFSRAVVQAASASSNKSIRDATPVNLLQRPRAPRLEPKKIPLAERKTGFAEIYLPFTESQIHEQAERCLECGDKTICQWTCPLHNAIPKWISLAHQGRIHEAAELSHQTSSLPEVCGRVCPQDRLCEQSCTLNDHDGAVTIGQIERHITETALATGWRPDLSQVKPSGKRVAIIGAGPAGLGCADILVRNGITPVVFDRYPEIGGLLTFGIPAFKLEKSVMTRRREIFTEMGVEFCLNTEIGRDITMENLLHDFDALFLGVGTYRSMRSGLENEDAQGVYDALPFLIGNTQHLMGYTANGAHPYVSMQDQRVVVLGGGDTAMDCVRTSLRQGASRVVCAYRRDEKNMPGSKREVKNAREEGAEFMFNLQPMSIVVDESGQVTGIKMVRTEMGQADAQGRRQALPITGSEHLIPADAVIMAFGFSPHRMSWLAEHNVVLDKHGRVVAPTISGYPYQTSNPKIFAGGDIVRGADLIVTAIAEGRKAAESIAYYLNVL”: the “soluble on expression in E. coli” value is recorded as “not soluble”. As for “MSKIRVLSVDDSALMRQIMTEIINSHSDMEMVATAPDPLVARDLIKKFNPDVLTLDVEMPRMDGLDFLEKLMRLRPMPVVMVSSLTGKGSEVTLRALELGAIDFVTKPQLGIREGMLAYSEMIAEKVRTAARARIAAHKPMAAPTTLKAGPLLSSEKLIAIGASTGGTEAIRHVLQPLPLSSPAVIITQHMPPGFTRSFAERLNKLCQISVKEAEDGERVLPGHAYIAPGDKHMELARSGANYQIKIHDGPPVNRHRPSVDVLFHSVAKHAGRNAVGVILTGMGNDGAAGMLAMYQAGAWTIAQNEASCVVFGMPREAINMGGVSEVVDLSQVSQQMLAKISAGQAIRI”, the “soluble on expression in E. coli” value was “soluble”. With “MSLADKRIGILVYDGVLTSDVTAPLEVFGVASRLTWFSDYEVLTISVSDQKTITTEEGLEIGVDAWIGDQPELDVLVLTSSYDMDALIENKDLIHFIQTTSKAADWMASNCSGAYLLAEAGLLNGKKATTWAGGENGLQKDYPAVDVQFNQNFVVDDGVITSNGSLVSYQAALKLLHLMTSESKAQEVADALQYSRFSTEGHHHHHH”, the “soluble on expression in E. coli” value was “soluble”.

Values taken from the DeepSol protein solubility set.
